Source: US20220088115A1, “PHARMACEUTICAL COMPOSITION, COMPRISING INHIBITORY PEPTIDE AGAINST FAS SIGNALING, FOR PREVENTION OR TREATMENT OF OBESITY, FATTY LIVER, OR STEATOHEPATITIS” (SIGNET BIOTECH INC., priority 2018, published 2022)
Where a SMILES comes first, the peptide text is derived from it. Where no end group is shown, it is not given here.

Tests used:
obese person = conditions: in vivo; cited from earlier work
[1] = Stability of peptides in sera; assay type: in vitro ADME; conditions: compared among cyclic FBP-8, linear FBP-8 and FBP-7
Fas = target: T1, Fas (Homo sapiens, UniProt P25445); test: Binding of Alexa647-labeled peptides to Fas-expressing Jurkat cell line; conditions: Jurkat cell line always expressing Fas; Alexa647-labeled peptide
T1 construct: A Jurkat cell line, in which Fas is always expressed; host or cells: Jurkat
T1 sequence (P25445 26-335): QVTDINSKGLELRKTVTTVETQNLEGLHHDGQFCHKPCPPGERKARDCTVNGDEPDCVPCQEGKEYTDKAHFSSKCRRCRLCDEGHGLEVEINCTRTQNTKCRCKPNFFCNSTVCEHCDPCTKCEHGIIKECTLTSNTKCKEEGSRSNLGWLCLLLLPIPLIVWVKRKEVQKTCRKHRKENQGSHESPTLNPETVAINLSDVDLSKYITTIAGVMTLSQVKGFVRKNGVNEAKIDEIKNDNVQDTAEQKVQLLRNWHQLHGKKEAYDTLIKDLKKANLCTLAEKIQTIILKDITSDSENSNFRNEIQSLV
Protocol: A Jurkat cell line which is a human blood cancer cell line and a 3T3L1 cell line which is a murine adipocyte were purchased from ATCC (USA), and the Jurkat cell line was cultured in an RPMI culture medium containing 10% fetal bovine serum (FBS), 1% penicillin, 1% streptomycin, and 25 mM glucose.
A Jurkat cell line, in which Fas is always expressed, was treated with an FITC-labeled Fas antibody and treated with Alexa647-labeled FBP-8, FBP-A, FBP-7 or control peptide (YCNSTVCY; CtrFBP).

3T3L1 cell line = test: Apoptosis level in 3T3L1 cell line treated with FasL and peptide (annexin V flow cytometry); assay type: cell-based, murine; conditions: differentiated 3T3L1 treated with Fas ligand and peptide
Protocol: The 3T3L1 cell line was cultured in a DMEM culture medium containing 10% FBS, 1% penicillin, 1% streptomycin, and 25 mM glucose. The 3T3L1 cell line was aliquoted into the above DMEM culture solution at a concentration of 2×10^5 cells/ml to induce adipocyte maturation for 3 days, and then replaced with a culture solution containing insulin to induce adipocyte maturation again for 3 days. Thereafter, the 3T3L1 cell line was further cultured in the above DMEM culture solution for 2 days to achieve complete maturation of adipocytes.
The 3T3L1 cell line was treated with a Fas ligand (FasL) at a concentration of 500 ng/ml to induce apoptosis, and FBP signal blocking peptides (FBP-8. FBP-A and FBP-7) and CtrFBP bound to Alexa647 were treated, respectively. After 4 hours of peptide treatment, cells were washed with DPBS and treated with FITC-bound annexin V (BD Pharmingen) to analyze the apoptosis inhibitory effect by a flow cytometer.

obesity model mice = test: TUNEL staining of dead cells, obesity model mice, intravenous FBP-8; assay type: in vivo, C57BL/6 mice; conditions: intravenous twice a week for 5 weeks
Protocol: All animal experiments performed for the present invention were approved by the Institutional Animal Care and Use Committee of Hanyang University. […] Thereafter, depending on the experimental group, 60 μg/one time of FBP8 were administered by intravenous injection twice a week for a total of 5 weeks (FIG. 13), or FBP7 was administered by subcutaneous injection twice a day.
Furthermore, a terminal deoxynucleotidyl transferase dUTP nick end labeling (TUNEL) analysis for each tissue was performed with an in situ cell death detection kit (Millipore, USA). Thereafter, the fluorescence signals were analyzed under a TCS-SP5 confocal microscope by staining the nuclei with Hoechst 33342, and the fluorescence signals of each cell were analyzed with the Image J program.
Obesity model mice were produced by feeding normal mice a high fat diet for 8 weeks, and FBP-8 was administered by intravenous injection twice a week for a total of 5 weeks (FIG. 13). After five weeks, the obesity model mice were sacrificed to isolate white adipose tissues and liver tissues and analyze the proportion of dead cells by TUNEL staining.

[2] = target: T2, Fas on Jurkat cell line (human blood cancer cell line in which Fas is always expressed) (human, UniProt P25445 26-335); test: cell-based or functional assay
T2 sequence (looked up): T1 sequence (P25445 26-335)

CCCCCCCCCCCCCCCC(=O)N[C@@H](CCC(=O)NCCCC[C@H](NC(=O)[C@H](C)NC(=O)[C@H](C)NC(=O)[C@H](CCC(N)=O)NC(=O)CNC(=O)[C@H](CCC(=O)O)NC(=O)[C@H](CC(C)C)NC(=O)[C@H](Cc1ccc(O)cc1)NC(=O)[C@H](CO)NC(=O)[C@H](CO)NC(=O)[C@@H](NC(=O)[C@H](CC(=O)O)NC(=O)[C@H](CO)NC(=O)[C@@H](NC(=O)[C@H](Cc1ccccc1)NC(=O)[C@@H](NC(=O)CNC(=O)[C@H](CCC(=O)O)NC(=O)[C@H](C)NC(=O)[C@@H](N)Cc1cnc[nH]1)[C@@H](C)O)[C@@H](C)O)C(C)C)C(=O)N[C@@H](CCC(=O)O)C(=O)N[C@@H](Cc1ccccc1)C(=O)N[C@H](C(=O)N[C@@H](C)C(=O)N[C@@H](Cc1c[nH]c2ccccc12)C(=O)N[C@@H](CC(C)C)C(=O)N[C@H](C(=O)N[C@@H](CCCNC(=N)N)C(=O)NCC(=O)N[C@@H](CCCNC(=N)N)C(=O)NCC(=O)O)C(C)C)[C@@H](C)CC)C(=O)O [liraglutide]
side effects (obese person): nausea, vomiting, diarrhea, and constipation

N[C@@H](Cc1ccc(O)cc1)C(=O)N[C@@H](CS)C(=O)N[C@@H](CC(=O)O)C(=O)N[C@@H](CCC(=O)O)C(=O)N[C@@H](Cc1c[nH]cn1)C(=O)N[C@@H](Cc1ccccc1)C(=O)N[C@@H](Cc1ccc(O)cc1)C(=O)O [FBP-7, YCDEHFY] (H-YCDEHFY-OH; N-terminus and C-terminus assumed)
serum stability [1]: the best

YCDEHFAY (Fas binding peptide-A (FBP-A))
binding to Jurkat cells (Alexa647 signal) (Fas): bound to Jurkat cells at similar levels

YCNSTVCY (control peptide) [CtrFBP, control peptide used as negative control, reference compound]
binding to Jurkat cells (Alexa647 signal) (Fas): hardly bound to Jurkat cells | apoptosis level (3T3L1 cell line): 23±5.12% | proportion of dead cells in liver tissue (TUNEL) (obesity model mice): 17+7.98% | proportion of dead cells in white adipose tissue (TUNEL) (obesity model mice): 51±2.98%

B1: Control Peptide (CTRP) (peptide)
peptide: YCNSTVCY
modifications: cysteine pairing not given here; also: Alexa647 label, attachment site not given here
apoptosis level of Jurkat cells treated with Fas ligand (FasL) and peptide [2]: 31%

YCDEHFY (also: Alexa647 label, attachment site not given here) [Fas Blocking Peptide 7 (FBP7)]
apoptosis level of Jurkat cells treated with Fas ligand (FasL) and peptide [2]: 14%

B2: Fas Blocking Peptide (FBP or FBP-8) (peptide)
peptide: YCDEHFCY
modifications: cysteine pairing not given here; also: Alexa647 or Alexa 488 label, attachment site not given here
apoptosis level of Jurkat cells treated with Fas ligand (FasL) and peptide [2]: 17%

YCDEHFAY (also: Alexa647 label, attachment site not given here) [Fas Blocking Peptide A (FBPA)]
apoptosis level of Jurkat cells treated with Fas ligand (FasL) and peptide [2]: 15%
